Drawing on article PMC9734137 (2022), this text covers koff and EC50 for two molecules.

Where two headings read alike, the source gives them in different places.

In test [1] the target is T1, WT SARS2 RBD (SARS-CoV-2, UniProt P0DTC2 321-591). Briefly: SPR.
The target of test [2] is SARS1 RBD (SARS-CoV-1). Briefly: SPR. (In general: In SPR one partner is held on a chip, and binding of the other changes the refractive index at the surface.)
The target in test [3] is T1, WT SARS2 RBD. Briefly: SPR. The source holds these as a separate data set.
Test [4] concerns the target SARS1 RBD (SARS-CoV-1). Briefly: SPR. This is another data set of the same source.
Test [5] has as its target T1, WT SARS2 RBD. Briefly: ELISA.

B1: aSA3 (VHH)
VHH: QVQLVESGGGLVQPGGSLRLSCAASGFTSDHYALAWFRQAPGKEREGVSCIDSDGNPFYADSVKGRFTGSRDNAKNTVYLQMNSLKLEDTAVYYCAAGLWYGRSLNSFDYDYWGQGTQVTVSS
Take B1: the koff (as a rule, the rate constant with which the complex falls apart) is 9.77e-05 s⁻¹ with WT SARS2 RBD [1] and 0.000364 s⁻¹ in the test with SARS1 RBD [2].

B2: aSA3-Fc (Fc fusion)
chain: B1 VHH
For B2, the koff with WT SARS2 RBD [3] was 1.44e-05 s⁻¹; with SARS1 RBD [4] it was 8.26e-05 s⁻¹. In addition, a half-maximal response with WT SARS2 RBD [5] (EC50) required 740 pM.
